# Measured values from patent US20260167699A1 (Chugai, published 2026).
# B1: GpH7-A5/GpH7-B3 variant I336_09D/GpL16-k0 (antibody, human IgG1, kappa)
# heavy 1: not shown
# heavy 2: not shown
# light: DIVMTQSPLSLPVTPGEPASISCQASESLVHSNRNTYLHWYLQKPGQSPQLLIYKVSNRFSGVPDRFSGSGSGTDFTLKISRVEAEDVGVYYCSQNTHVPPTFGQGTKVEIERTVAAPSVFIFPPSDEQLKSGTASVVCLLNNFYPREAKVQWKVDNALQSGNSQESVTEQDSKDSTYSLSSTLTLSKADYEKHKVYACEVTHQGLSSPVTKSFNRGEC
# notes: copies: 1 + 1 + 2
# B2: GpH7-A5/GpH7-B3 variant H268_07I/GpL16-k0 (antibody, human IgG1, kappa)
# heavy 1: not shown
# heavy 2: not shown
# light: B1 light
# notes: copies: 1 + 1 + 2
# B3: GpH7-A5/GpH7-B3 variant G236_13S/GpL16-k0 (antibody, human IgG1, kappa)
# heavy 1: not shown
# heavy 2: not shown
# light: B1 light
# notes: copies: 1 + 1 + 2
# B4: GpH7-A5/GpH7-B3 variant I336_01G/GpL16-k0 (antibody, human IgG1, kappa)
# heavy 1: not shown
# heavy 2: not shown
# light: B1 light
# notes: copies: 1 + 1 + 2
# B5: GpH7-A5/GpH7-B3 variant I332_20W/GpL16-k0 (antibody, human IgG1, kappa)
# heavy 1: not shown
# heavy 2: not shown
# light: B1 light
# notes: copies: 1 + 1 + 2
# B6: GpH7-A5/GpH7-B3 variant G236_03V/GpL16-k0 (antibody, human IgG1, kappa)
# heavy 1: not shown
# heavy 2: not shown
# light: B1 light
# notes: copies: 1 + 1 + 2
# B7: GpH7-A5/GpH7-B3 variant H268_10E/GpL16-k0 (antibody, human IgG1, kappa)
# heavy 1: not shown
# heavy 2: not shown
# light: B1 light
# notes: copies: 1 + 1 + 2
# B8: GpH7-A5/GpH7-B3 variant H268_20W/GpL16-k0 (antibody, human IgG1, kappa)
# heavy 1: not shown
# heavy 2: not shown
# light: B1 light
# notes: copies: 1 + 1 + 2
# B9: GpH7-A5/GpH7-B3 variant I332_06M/GpL16-k0 (antibody, human IgG1, kappa)
# heavy 1: not shown
# heavy 2: not shown
# light: B1 light
# notes: copies: 1 + 1 + 2
# B10: GpH7-A5/GpH7-B3 variant H268_12R/GpL16-k0 (antibody, human IgG1, kappa)
# heavy 1: not shown
# heavy 2: not shown
# light: B1 light
# notes: copies: 1 + 1 + 2
# B11: GpH7-A5/GpH7-B3 variant H268_04F/GpL16-k0 (antibody, human IgG1, kappa)
# heavy 1: not shown
# heavy 2: not shown
# light: B1 light
# notes: copies: 1 + 1 + 2
# B12: GpH7-A5/GpH7-B3 variant H268_01G/GpL16-k0 (antibody, human IgG1, kappa)
# heavy 1: not shown
# heavy 2: not shown
# light: B1 light
# notes: copies: 1 + 1 + 2
# B13: GpH7-A5/GpH7-B3 variant I336_10E/GpL16-k0 (antibody, human IgG1, kappa)
# heavy 1: not shown
# heavy 2: not shown
# light: B1 light
# notes: copies: 1 + 1 + 2
# B14: GpH7-A5/GpH7-B3 variant I332_14T/GpL16-k0 (antibody, human IgG1, kappa)
# heavy 1: not shown
# heavy 2: not shown
# light: B1 light
# notes: copies: 1 + 1 + 2
# B15: GpH7-A5/GpH7-B3 variant H268_18N/GpL16-k0 (antibody, human IgG1, kappa)
# heavy 1: not shown
# heavy 2: not shown
# light: B1 light
# notes: copies: 1 + 1 + 2
# B16: GpH7-A5/GpH7-B3 variant I332_13S/GpL16-k0 (antibody, human IgG1, kappa)
# heavy 1: not shown
# heavy 2: not shown
# light: B1 light
# notes: copies: 1 + 1 + 2
# B17: GpH7-A5/GpH7-B3 variant E333_14T/GpL16-k0 (antibody, human IgG1, kappa)
# heavy 1: not shown
# heavy 2: not shown
# light: B1 light
# notes: copies: 1 + 1 + 2
# B18: GpH7-A5/GpH7-B3 variant I332_10E/GpL16-k0 (antibody, human IgG1, kappa)
# heavy 1: not shown
# heavy 2: not shown
# light: B1 light
# notes: copies: 1 + 1 + 2
# B19: GpH7-A5/GpH7-B3 variant G236_15Y/GpL16-k0 (antibody, human IgG1, kappa)
# heavy 1: not shown
# heavy 2: not shown
# light: B1 light
# notes: copies: 1 + 1 + 2
# B20: GpH7-A5/GpH7-B3 variant I336_08L/GpL16-k0 (antibody, human IgG1, kappa)
# heavy 1: not shown
# heavy 2: not shown
# light: B1 light
# notes: copies: 1 + 1 + 2
# B21: GpH7-A5/GpH7-B3 variant I336_06M/GpL16-k0 (antibody, human IgG1, kappa)
# heavy 1: not shown
# heavy 2: not shown
# light: B1 light
# notes: printed 1336_06M, read as I336_06M; also called 1336_06M; copies: 1 + 1 + 2
# B22: GpH7-A5/GpH7-B3 variant I332_09D/GpL16-k0 (antibody, human IgG1, kappa)
# heavy 1: not shown
# heavy 2: not shown
# light: B1 light
# notes: copies: 1 + 1 + 2
# B23: GpH7-A5/GpH7-B3 variant I332_02A/GpL16-k0 (antibody, human IgG1, kappa)
# heavy 1: not shown
# heavy 2: not shown
# light: B1 light
# notes: copies: 1 + 1 + 2
# B24: GpH7-A5/GpH7-B3 variant G236_07I/GpL16-k0 (antibody, human IgG1, kappa)
# heavy 1: not shown
# heavy 2: not shown
# light: B1 light
# notes: copies: 1 + 1 + 2
# B25: GpH7-A5/GpH7-B3 variant G237_14T/GpL16-k0 (antibody, human IgG1, kappa)
# heavy 1: not shown
# heavy 2: not shown
# light: B1 light
# notes: copies: 1 + 1 + 2
# B26: GpH7-A5/GpH7-B3 variant H268_15Y/GpL16-k0 (antibody, human IgG1, kappa)
# heavy 1: not shown
# heavy 2: not shown
# light: B1 light
# notes: copies: 1 + 1 + 2
# B27: GpH7-A5/GpH7-B3 variant H268_13S/GpL16-k0 (antibody, human IgG1, kappa)
# heavy 1: not shown
# heavy 2: not shown
# light: B1 light
# notes: copies: 1 + 1 + 2
# B28: GpH7-A5/GpH7-B3 variant G236_04F/GpL16-k0 (antibody, human IgG1, kappa)
# heavy 1: not shown
# heavy 2: not shown
# light: B1 light
# notes: copies: 1 + 1 + 2
# B29: GpH7-A5/GpH7-B3 variant E333_20W/GpL16-k0 (antibody, human IgG1, kappa)
# heavy 1: not shown
# heavy 2: not shown
# light: B1 light
# notes: copies: 1 + 1 + 2
# B30: GpH7-A5/GpH7-B3 variant H268_08L/GpL16-k0 (antibody, human IgG1, kappa)
# heavy 1: not shown
# heavy 2: not shown
# light: B1 light
# notes: copies: 1 + 1 + 2
# B31: GpH7-A5/GpH7-B3 variant H268_09D/GpL16-k0 (antibody, human IgG1, kappa)
# heavy 1: not shown
# heavy 2: not shown
# light: B1 light
# notes: copies: 1 + 1 + 2
# Biological target: T1, FcγRIIIa (human, UniProt P08637 17-208)
# T1 construct: extracellular domain; also called 3a; FcγRIIIa extracellular domain
# T1 sequence (P08637 other isoform, or with tags, fused parts or gaps): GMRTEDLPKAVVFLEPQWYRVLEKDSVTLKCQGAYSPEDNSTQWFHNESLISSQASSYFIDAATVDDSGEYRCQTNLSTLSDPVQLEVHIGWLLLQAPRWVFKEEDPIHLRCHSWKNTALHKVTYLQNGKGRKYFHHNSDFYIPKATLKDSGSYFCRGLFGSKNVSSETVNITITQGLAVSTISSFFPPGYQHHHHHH
# Assay: SPR (Biacore);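 note: antibody variants captured on an SPR sensor chip, with FcγRIIIa passed over as analyte in HBS-EP+ buffer at 25 °C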
row,Binder,He/Con 3a
1,B1,102 % of GpH7-A5/GpH7-B3/GpL16-k0
2,B2,84.1 % of GpH7-A5/GpH7-B3/GpL16-k0
3,B3,60.3 % of GpH7-A5/GpH7-B3/GpL16-k0
4,B4,94.6 % of GpH7-A5/GpH7-B3/GpL16-k0
5,B5,116 % of GpH7-A5/GpH7-B3/GpL16-k0
6,B6,53.8 % of GpH7-A5/GpH7-B3/GpL16-k0
7,B7,184 % of GpH7-A5/GpH7-B3/GpL16-k0
8,B8,82 % of GpH7-A5/GpH7-B3/GpL16-k0
9,B9,92.5 % of GpH7-A5/GpH7-B3/GpL16-k0
10,B10,76 % of GpH7-A5/GpH7-B3/GpL16-k0
11,B11,96 % of GpH7-A5/GpH7-B3/GpL16-k0
12,B12,95.7 % of GpH7-A5/GpH7-B3/GpL16-k0
13,B13,114 % of GpH7-A5/GpH7-B3/GpL16-k0
14,B14,110 % of GpH7-A5/GpH7-B3/GpL16-k0
15,B15,103 % of GpH7-A5/GpH7-B3/GpL16-k0
16,B16,95.6 % of GpH7-A5/GpH7-B3/GpL16-k0

row,Binder,He/Con 3a
1,B17,100 % of GpH7-A5/GpH7-B3/GpL16-k0
2,B18,213 % of GpH7-A5/GpH7-B3/GpL16-k0
3,B19,112 % of GpH7-A5/GpH7-B3/GpL16-k0
4,B20,102 % of GpH7-A5/GpH7-B3/GpL16-k0
5,B21,104 % of GpH7-A5/GpH7-B3/GpL16-k0
6,B22,189 % of GpH7-A5/GpH7-B3/GpL16-k0
7,B23,103 % of GpH7-A5/GpH7-B3/GpL16-k0
8,B24,55.6 % of GpH7-A5/GpH7-B3/GpL16-k0
9,B25,50.5 % of GpH7-A5/GpH7-B3/GpL16-k0
10,B26,96.5 % of GpH7-A5/GpH7-B3/GpL16-k0
11,B27,121 % of GpH7-A5/GpH7-B3/GpL16-k0
12,B28,81 % of GpH7-A5/GpH7-B3/GpL16-k0
13,B29,104 % of GpH7-A5/GpH7-B3/GpL16-k0
14,B30,75.9 % of GpH7-A5/GpH7-B3/GpL16-k0
15,B31,195 % of GpH7-A5/GpH7-B3/GpL16-k0
